Positions count from the first letter of the chain named.
B1: peptide derivative H322AT_D1G_S16A (designed binder)
chain: GPQFGLFSKYRTPNCAQHEGMACYALYEPVCGSDMSTYANECTLCMKIREGGHNIKIIRNGPCGG
B2: peptide derivative H308_D1G_S16A (designed binder)
chain: B1 chain with Q17D, E19A, Y24V, A39E, T43V
B3: peptide derivative H321AT_D1G_S16A (designed binder)
chain: B1 chain with Q17D, H18F, E19D, L26F
B4: peptide derivative H322AT (designed binder)
chain: B1 chain with G1D, A16S
B5: peptide H223 (designed binder)
chain: B1 chain with G1D, A16T, Q17M, H18D, E19M, Y24W, L26F
B6: peptide H321 (designed binder)
chain: B1 chain with G1D, A16S, Q17D, H18F, E19D, L26F, A39M, T43A
B7: peptide M7 (designed binder)
chain: B1 chain with G1D, A16S, Q17D, E19A, Y24V, L26F
B8: peptide H228 (designed binder)
chain: DPQFGLFSKYRTPNCGHYNGWACQAFFEPVCGSDMSTYANECTLCMKIREGGHNIKIIRNGPCGG
B9: peptide H322 (designed binder)
chain: B1 chain with G1D, A16S, A39V, T43A
B10: peptide derivative H308AT (designed binder)
chain: B1 chain with G1D, A16S, Q17D, E19A, Y24V
B11: peptide derivative H321AT (designed binder)
chain: B1 chain with G1D, A16S, Q17D, H18F, E19D, L26F
B12: peptide H218 (designed binder)
chain: B1 chain with G1D, A16L, Q17K, H18S, L26Y
B13: peptide H308 (designed binder)
chain: B1 chain with G1D, A16S, Q17D, E19A, Y24V, A39E, T43V

These binders were tested against T1, HTRA1 (cat) (human, UniProt Q92743 158-373) (assay: cell-based or functional assay).
T1 sequence (Q92743 158-373, form in doubt): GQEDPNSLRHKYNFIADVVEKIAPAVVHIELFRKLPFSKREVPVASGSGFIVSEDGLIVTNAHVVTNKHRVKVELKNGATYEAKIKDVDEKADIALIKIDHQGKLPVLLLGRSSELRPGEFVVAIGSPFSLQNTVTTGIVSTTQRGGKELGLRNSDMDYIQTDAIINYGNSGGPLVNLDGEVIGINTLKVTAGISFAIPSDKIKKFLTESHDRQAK

| Binder | IC50 (nM) for HTRA1 (cat), decomposition rate of substrate peptide H2-Opt [nM] |
| --- | --- |
| B1 | 12.9 |
| B2 | 7.9 |
| B3 | 9 |

Each binder was assayed against T2, HTRA1 (full) (human, UniProt Q92743 23-480) (assay: cell-based or functional assay).
T2 sequence (Q92743 23-480): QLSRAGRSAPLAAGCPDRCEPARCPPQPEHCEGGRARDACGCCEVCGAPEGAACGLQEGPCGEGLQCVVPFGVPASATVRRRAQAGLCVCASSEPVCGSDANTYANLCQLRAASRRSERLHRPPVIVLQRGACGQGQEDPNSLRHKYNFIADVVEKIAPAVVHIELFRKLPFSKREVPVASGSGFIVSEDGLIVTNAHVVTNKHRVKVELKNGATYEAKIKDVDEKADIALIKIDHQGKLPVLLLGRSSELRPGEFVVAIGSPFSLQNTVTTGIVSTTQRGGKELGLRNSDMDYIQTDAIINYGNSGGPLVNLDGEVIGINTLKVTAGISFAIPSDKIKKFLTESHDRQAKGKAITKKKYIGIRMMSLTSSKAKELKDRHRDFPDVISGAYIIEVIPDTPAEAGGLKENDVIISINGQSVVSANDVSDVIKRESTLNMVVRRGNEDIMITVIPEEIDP

| Binder | IC50 (nM) for HTRA1 (full), decomposition rate of substrate peptide H2-Opt [nM] |
| --- | --- |
| B1 | 12.2 |
| B2 | 9.1 |
| B3 | 12 |

Biological target: T1, HTRA1 (cat)
Assay: cell-based or functional assay
Remark: another data set of the same source

| Binder | IC50 (nM) for HTRA1 (cat), decomposition rate of substrate peptide H2-Opt [nM] |
| --- | --- |
| B4 | 45 |
| B5 | 41 |
| B6 | 48 |
| B7 | 43 |
| B8 | 71 |
| B9 | 50 |
| B10 | 49 |
| B11 | 46 |
| B12 | 72 |
| B13 | 37 |

Biological target: T2, HTRA1 (full)
Assay: cell-based or functional assay
Remark: another data set of the same source

| Binder | IC50 (nM) for HTRA1 (full), decomposition rate of substrate peptide H2-Opt [nM] |
| --- | --- |
| B4 | 25 |
| B5 | 66 |
| B6 | 29 |
| B7 | 24 |
| B8 | 38 |
| B9 | 17 |
| B10 | 31 |
| B11 | 18 |
| B12 | 55 |
| B13 | 15 |

Source: patent US20200377573A1 (Daiichi Sankyo, published 2020)
